# “And” between values parts separate entries of the source, which are not always exact repeats. Equal values may be shown once.
# T1: Human CLEC12A-His (recombinant, K244 WT) (human, UniProt Q5QGZ9 65-265)
# T1 construct: Made in house (Dragonfly Tx); also called hCLEC12A; hCLEC12A-His; not shown: His tag
# T1 sequence: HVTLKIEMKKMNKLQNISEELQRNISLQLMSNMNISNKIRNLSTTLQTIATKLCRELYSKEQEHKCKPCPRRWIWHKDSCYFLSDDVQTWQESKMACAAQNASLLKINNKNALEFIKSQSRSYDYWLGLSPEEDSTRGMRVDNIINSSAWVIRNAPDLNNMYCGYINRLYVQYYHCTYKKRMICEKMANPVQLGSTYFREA
# T2: mFc-hNKG2D (recombinant mFc-tagged human NKG2D dimer) (human, UniProt P26718 73-216)
# T2 construct: extracellular domain; Made in house; not shown: mouse Fc tag
# T2 sequence (looked up): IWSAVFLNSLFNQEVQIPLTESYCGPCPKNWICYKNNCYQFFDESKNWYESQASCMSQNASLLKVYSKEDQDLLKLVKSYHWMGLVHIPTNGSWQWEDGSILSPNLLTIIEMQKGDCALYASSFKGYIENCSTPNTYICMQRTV
# T3: human CLEC12A expressed on cells (human, UniProt Q5QGZ9 1-265)
# T3 construct: Transduced isogenic cells or endogenous expression on AML cells; also called RMA-hCLEC12A; Ba/F3-hCLEC12A
# T3 sequence: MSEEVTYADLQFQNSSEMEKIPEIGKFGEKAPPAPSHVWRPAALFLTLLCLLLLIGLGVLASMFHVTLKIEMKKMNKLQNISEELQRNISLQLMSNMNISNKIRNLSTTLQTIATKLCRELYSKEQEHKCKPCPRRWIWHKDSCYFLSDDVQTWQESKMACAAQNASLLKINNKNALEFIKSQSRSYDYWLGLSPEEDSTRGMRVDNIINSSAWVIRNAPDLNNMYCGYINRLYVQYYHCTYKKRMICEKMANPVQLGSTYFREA
# T4: recombinant human CLEC12A-His (human, UniProt Q5QGZ9 65-265)
# T4 construct: also called hCLEC12A-His; hCLEC12A
# T4 sequence: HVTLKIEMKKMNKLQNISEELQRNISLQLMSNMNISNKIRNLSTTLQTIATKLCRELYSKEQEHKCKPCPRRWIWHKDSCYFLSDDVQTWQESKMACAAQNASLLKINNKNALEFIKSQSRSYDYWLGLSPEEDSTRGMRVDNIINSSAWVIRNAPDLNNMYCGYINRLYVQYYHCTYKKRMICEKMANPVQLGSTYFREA
# Key:
# [1] = biological target: T1, Human CLEC12A-His (recombinant, K244 WT); experiment: SPR, untreated CLEC12A, two-state fit
# Procedure: (§1) Briefly, human Fc specific antibodies were covalently immobilized at a density ˜8000-10000 resonance units (RU) on carboxy methyl dextran matrix of a CM5 biosensor chip via amine-coupling chemistry to create an anti-hFc IgG chip. […] Association was monitored for 300 seconds and dissociation was monitored for 600 seconds. Surfaces were regenerated between cycles with three pulses of 10 mM glycine-HCl, pH 1.7 injected for 20 seconds at 100 μl/min. HBS-EP+ (1×) with 0.1 mg/ml BSA was used as running buffer throughout the experiment. Experiments were performed at physiological temperature of 37° C. To obtain kinetic rate constants and overall binding affinity, double-referenced data were fit to a two-state kinetic model using Biacore 8K Insight Evaluation software (Cytiva).
# [2] = biological target: T1, Human CLEC12A-His (recombinant, K244 WT); experiment: SPR, untreated CLEC12A, two-state fit (kd1)
# Procedure: as §1
# [3] = biological target: T1, Human CLEC12A-His (recombinant, K244 WT); experiment: SPR 37C, AB0089 captured on anti-hFc, two-state fit (ka1)
# Procedure: as §1
# [4] = biological target: T5, Human CD16a V158 (FcγRIIIa V158) (human, UniProt P08637 17-208, biotinylated); experiment: SPR; control sample
# T5 construct: Bought recombinant receptor; also called hCD16aV; hFcγRIIIa V158
# [5] = biological target: T2, mFc-hNKG2D (recombinant mFc-tagged …); experiment: SPR; control sample
# [6] = biological target: T1, Human CLEC12A-His (recombinant, K244 WT); experiment: SPR, two-state fit; control sample
# Procedure: as §1
# [7] = biological target: T3, human CLEC12A expressed on cells; experiment: flow cytometry, hCLEC12A+ Ba/F3
# [8] = biological target: T4, recombinant human CLEC12A-His; experiment: SPR 37C, average
# [9] = biological target: T6, recombinant cynomolgus FcRn (cynomolgus monkey, UniProt Q8SPV9 24-297; Q8SPW0 21-119); experiment: SPR 25C, pH 6.0, steady state; pH 6.0; first replicate
# T6 construct: also called cFcRn; cyno FcRn
# Procedure: Each FcRn binding experiment consisted of multiple cycles utilizing varying concentrations of analytes. […] As no-signal, negative controls, a 0 nM blank cycle was placed at the start of each concentration series, and a blank amine coupling modified chip surface lacking FcRn were used. Each experimental cycle included association, dissociation, and regeneration steps. The association step consisted of 60 sec analyte injection and was followed by a 60 sec dissociation step. Surface regeneration (60 sec injection of HBS-EP+ buffer, pH 7.4) completed each kinetic cycle. All steps were executed at a flow rate of 30 μL/min and at 25° C. MBS-EP+ buffer, pH 6.0 was used as a running buffer. The data were fitted to a steady state affinity model with Biacore Insight evaluation software. Chi² (calculated by the software) related to the calculated Rₘₐₓ was used to assess goodness of the fit.
# recombinant human CD16b = biological target: T7, recombinant human CD16b (human, UniProt O75015 17-200, limits assumed, biotinylated); experiment: SPR 25C, steady state
# T7 construct: also called FcγRIIIb
# T7 sequence (O75015 17-200 limits assumed): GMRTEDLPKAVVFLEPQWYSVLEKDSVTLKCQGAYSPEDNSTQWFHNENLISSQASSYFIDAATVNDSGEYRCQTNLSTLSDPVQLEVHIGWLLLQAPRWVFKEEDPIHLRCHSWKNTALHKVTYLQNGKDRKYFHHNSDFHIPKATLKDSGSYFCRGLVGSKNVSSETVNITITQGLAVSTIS
# T5 sequence (P08637 17-208 F176V limits assumed): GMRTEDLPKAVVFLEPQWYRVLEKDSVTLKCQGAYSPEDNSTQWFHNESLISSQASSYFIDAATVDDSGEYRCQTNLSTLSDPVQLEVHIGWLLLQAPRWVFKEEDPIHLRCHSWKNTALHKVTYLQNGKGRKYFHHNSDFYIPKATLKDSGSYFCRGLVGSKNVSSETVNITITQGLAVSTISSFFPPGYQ
# T6 sequence (Q8SPV9 24-297 limits assumed, chain 1 of 2): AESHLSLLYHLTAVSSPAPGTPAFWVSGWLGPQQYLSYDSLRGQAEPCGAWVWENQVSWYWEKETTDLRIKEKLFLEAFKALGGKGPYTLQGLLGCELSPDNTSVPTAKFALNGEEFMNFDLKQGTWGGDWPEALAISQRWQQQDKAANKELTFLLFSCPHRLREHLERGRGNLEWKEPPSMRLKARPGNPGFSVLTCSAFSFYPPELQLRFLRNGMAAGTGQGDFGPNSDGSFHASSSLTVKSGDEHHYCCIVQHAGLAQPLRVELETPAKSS
# T6 sequence (Q8SPW0 21-119 limits assumed, chain 2 of 2): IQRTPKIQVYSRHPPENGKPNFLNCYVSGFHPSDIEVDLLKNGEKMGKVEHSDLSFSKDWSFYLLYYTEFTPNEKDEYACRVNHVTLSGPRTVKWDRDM
Binder,Kd [1] [nM],koff [2] [s⁻¹],kon [3],Kd [4] [nM],koff [4] [s⁻¹],kon [4] [M⁻¹ s⁻¹],Kd [5] [nM],koff [5] [s⁻¹],kon [5] [M⁻¹ s⁻¹],Kd [6] [nM],fold lower EC50 than F3'-1295 [7] [fold],Kd [8] [nM],koff [8] [s⁻¹],kon [8] [M⁻¹ s⁻¹],Kd [9] [nM],Kd (recombinant human CD16b)
"AB0089 TriNKET (bispecific antibody, human IgG1, kappa, F3' format heterodimer of three chains; human IgG1 Fc with EW-RVT and Y349C/S354C mutations; also called AB0089 Lot AB0089-002; CLEC12A TriNKET AB0089) QLQLQESGPGLVKPSETLSLTCTVSGFSLTNYGLHWIRQPPGKCLEWIGVIWVGGATDYNPSLKSRVTISVDTSKNQFSLKLSSVQAADTAVYYCAKGDYGDTLDYWGQGTLVTVSSGGGGSGGGGSGGGGSGGGGSDIQMTQSPSSLSASVGDRVTITCHASQNINFWLSWYQQKPGKAPKLLIYEASNLHTGVPSRFSGSGSGTDFTLTISSLQPEDFATYYCQQSHSYPLTFGCGTKLEIKGSDKTHTCPPCPAPELLGGPSVFLFPPKPKDTLMISRTPEVTCVVVDVSHEDPEVKFNWYVDGVEVHNAKTKPREEQYNSTYRVVSVLTVLHQDWLNGKEYKCKVSNKALPAPIEKTISKAKGQPREPRVYTLPPCRDELTKNQVSLTCLVKGFYPSDIAVEWESNGQPENNYKTTPPVLVSDGSFTLYSKLTVDKSRWQQGNVFSCSVMHEALHNHYTQKSLSLSPG heavy: EVQLVESGGGLVKPGGSLRLSCAASGFTFSSYSMNWVRQAPGKGLEWVSSISSSSSYIYYADSVKGRFTISRDNAKNSLYLQMNSLRAEDTAVYYCARGAPIGAAAGWFDPWGQGTLVTVSSASTKGPSVFPLAPSSKSTSGGTAALGCLVKDYFPEPVTVSWNSGALTSGVHTFPAVLQSSGLYSLSSVVTVPSSSLGTQTYICNVNHKPSNTKVDKKVEPKSCDKTHTCPPCPAPELLGGPSVFLFPPKPKDTLMISRTPEVTCVVVDVSHEDPEVKFNWYVDGVEVHNAKTKPREEQYNSTYRVVSVLTVLHQDWLNGKEYKCKVSNKALPAPIEKTISKAKGQPREPQVCTLPPSRDELTENQVSLTCLVKGFYPSDIAVEWESNGQPENNYKTTPPVLDSDGSFFLYSWLTVDKSRWQQGNVFSCSVMHEALHNHYTQKSLSLSPG light: DIQMTQSPSSVSASVGDRVTITCRASQGISSWLAWYQQKPGKAPKLLIYAASSLQSGVPSRFSGSGSGTDFTLTISSLQPEDFATYYCQQGVSFPRTFGGGTKVEIKRTVAAPSVFIFPPSDEQLKSGTASVVCLLNNFYPREAKVQWKVDNALQSGNSQESVTEQDSKDSTYSLSSTLTLSKADYEKHKVYACEVTHQGLSSPVTKSFNRGEC",0.6,0.0398,1.1e+07 M⁻¹ s⁻¹ (2×) and 1e+07 M⁻¹ s⁻¹ (2×),323,0.0276,85300,772,0.135,175000,0.7,,,,,,
"F3'-1602 TriNKET (other, CLEC12A scFv-Fc, NKG2D A49MI Fab-Fc, human IgG1 Fc; also called AB0237) QLQLQESGPGLVKPSETLSLTCTVSGFSLTNYGLHWIRQPPGKCLEWIGVIWSGGKTDYNPSLKSRVTISKDTSKNQFSLKLSSVQAADTAVYYCAKYDYDDSLDYWGQGTLVTVSSGGGGSGGGGSGGGGSGGGGSDIQMTQSPSSLSASVGDRVTITCHASQNINFWLSWYQQKPGKAPKLLIYEASNLHTGVPSRFSGSGSGTRFTLTISSLQPEDIATYYCQQSHSYPLTFGCGTKLEIKGSDKTHTCPPCPAPELLGGPSVFLFPPKPKDTLMISRTPEVTCVVVDVSHEDPEVKFNWYVDGVEVHNAKTKPREEQYNSTYRVVSVLTVLHQDWLNGKEYKCKVSNKALPAPIEKTISKAKGQPREPRVYTLPPCRDELTKNQVSLTCLVKGFYPSDIAVEWESNGQPENNYKTTPPVLVSDGSFTLYSKLTVDKSRWQQGNVFSCSVMHEALHNHYTQKSLSLSPG heavy: EVQLVESGGGLVKPGGSLRLSCAASGFTFSSYSMNWVRQAPGKGLEWVSSISSSSSYIYYADSVKGRFTISRDNAKNSLYLQMNSLRAEDTAVYYCARGAPIGAAAGWFDPWGQGTLVTVSSASTKGPSVFPLAPSSKSTSGGTAALGCLVKDYFPEPVTVSWNSGALTSGVHTFPAVLQSSGLYSLSSVVTVPSSSLGTQTYICNVNHKPSNTKVDKKVEPKSCDKTHTCPPCPAPELLGGPSVFLFPPKPKDTLMISRTPEVTCVVVDVSHEDPEVKFNWYVDGVEVHNAKTKPREEQYNSTYRVVSVLTVLHQDWLNGKEYKCKVSNKALPAPIEKTISKAKGQPREPQVCTLPPSRDELTENQVSLTCLVKGFYPSDIAVEWESNGQPENNYKTTPPVLDSDGSFFLYSWLTVDKSRWQQGNVFSCSVMHEALHNHYTQKSLSLSPG light: DIQMTQSPSSVSASVGDRVTITCRASQGISSWLAWYQQKPGKAPKLLIYAASSLQSGVPSRFSGSGSGTDFTLTISSLQPEDFATYYCQQGVSFPRTFGGGTKVEIKRTVAAPSVFIFPPSDEQLKSGTASVVCLLNNFYPREAKVQWKVDNALQSGNSQESVTEQDSKDSTYSLSSTLTLSKADYEKHKVYACEVTHQGLSSPVTKSFNRGEC",,,,,,,,,,,~2,1.2,0.000933,779000,1100,7600 nM and 7200 nM and 8600 nM and 6500 nM

# Source: patent US20220119534A1 (DRAGONFLY THERAPEUTICS, published 2022)
